In US8110660B2, “Soluble ENPP4 protein” (Ono Pharmaceutical Co., Ltd., priority 2004, dated 2012):

Tests used:
Type in all cases: biochemical
[1] = target: T1, purified soluble type ENPP6 protein (Homo sapiens, UniProt Q6UWR7); assay: Inhibition of light-emitting substrate degradation by soluble type ENPP6 protein
T1 construct: signal peptide; base No. 1 to 66, mature protein; base No. 67 to 1269; made in house; host or cells: HEK293T (secreted into culture supernatant, His-Trap purified)
T1 sequence (Q6UWR7 23-423): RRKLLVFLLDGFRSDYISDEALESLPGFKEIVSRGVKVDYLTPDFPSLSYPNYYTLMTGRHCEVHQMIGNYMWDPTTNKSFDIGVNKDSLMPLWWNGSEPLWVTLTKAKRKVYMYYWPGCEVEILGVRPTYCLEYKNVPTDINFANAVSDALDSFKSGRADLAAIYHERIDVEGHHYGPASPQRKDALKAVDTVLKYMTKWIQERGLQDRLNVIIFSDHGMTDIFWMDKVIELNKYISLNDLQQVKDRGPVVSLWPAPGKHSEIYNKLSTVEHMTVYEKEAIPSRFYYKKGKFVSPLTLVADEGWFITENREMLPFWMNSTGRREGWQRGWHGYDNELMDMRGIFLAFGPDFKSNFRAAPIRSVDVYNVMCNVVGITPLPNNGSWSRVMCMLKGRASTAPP
Procedure: 0.2 μg of the purified soluble type ENPP6 protein was mixed in 90 μL of assay buffer (20 mM HEPES, 140 mM NaCl, 5 mM KCl, 1 mM CaCl2, 1 mM MgCl2, 10 mM Glucose, pH 9.6), and 10 μL of each of 10 mM pNP-PP and a solution of a test compound was added thereto, and was kept at 37° C. for 2 hours. Then, absorption of light of 405 nm was measured and thereby, the amount of p-nitorphenol was quantitatively determined and thereby the inhibitory activity of […] degradation of each of the test compounds was examined. By using Neurotransmitter Library Plate 10 (Purinergic & adenosines) ver. 2, Bioactive Lipid Library ver. 3 (manufactured by BIOMOL Inc.), and various lysophospholipids as test compounds, the inhibitory activity of pNP-PP degradation was measured and, 80% or more of the inhibitory activity was detected in Glycerophosphorilcholine, and 70% or more of the inhibitory activity in Lysophosphatidylcholine, 1-Methyladenosine, 3-Deazaadenosine, ATP, and ADP(1 mM), and 60% or more of the inhibitory activity in N6-Methyladenosine, N6-Methyl-2′-deoxy-adenosine, S-Adenosyl-L-Homocysteine, and 2-MethylthioATP.

[2] = NPP/PDE activity of soluble type ENPP proteins (pNP-TMP degradation, 405 nm); conditions: 1 mM pNP-TMP, pH 9.6, 37° C., 2 hours, absorption at 405 nm
Procedure: 400 mL of the culture supernatant of the cells expressing the soluble type human ENPP4 protein was concentrated at 8 times by using Amicon Ultra-15 (fraction molecular weight 10,000, manufactured by Millipore Inc.). The His-Tag-added protein was affinity-purified by using AKTAexplorer 10S (manufactured by Amersham Biosciences Inc.) and His-Trap column (manufactured by Amersham Biosciences Inc.). Samples in the respective purification steps were subjected to SDS-PAGE according to a predetermined method and then the protein was stained by using Simply-Blue-Stain (manufactured by Invitrogen Inc.). […] 40 μL of each of the respective purification steps and purified soluble type human ENPP4-FLAG-His proteins was mixed with 50 μL of assay buffer (20 mM HEPES, 140 mM NaCl, 5 mM KCl, 1 mM CaCl2, 1 mM MgCl2, 10 mM Glucose, pH 9.6, the method of Voltmeter P. et al., Eur. J. Biochem. 270 (2003) 2971-78 was improved) and 10 μL of 10 mM p-nitrophenyl-Thymidine monophosphate (pNP-TMP, Sigma Inc.), and the mixture was kept at 37° C. for 2 hours and then, absorption of light of 405 nm was measured and thereby, p-nitorphenol, which was a degradation product, was measured and, whether the Nucleotide Pyrophosphatase (NPP)/Phospho-Diesterase (PDE) activity existed or not was examined. […]

[3] = PDE/PME activity of soluble type ENPP proteins (pNP-PP or bis-pNPP degradation); conditions: 0.2 μg protein, 1 mM pNP-PP (ENPP6 also bis-pNPP), pH 9.6, 37° C., 90 min, FIG. 8
Procedure: (§1) 0.2 μg of the purified soluble type ENPP4 protein was mixed in 90 μL of assay buffer (20 mM HEPES, 140 mM NaCl, 5 mM KCl, 1 mM CaCl2, 1 mM MgCl2, 10 mM Glucose, pH 9.6) and 10 μL of 10 mM p-nitrophenyl phenylphosphonate (pNP-PP, manufactured by Sigma Inc.), and was kept at 37° C. for 90 min and then, absorption of light of 405 nm was measured and thereby, the amount of P-nitrophenol was quantitatively determined and, whether the PDE/PME activity existed or not was examined.
as §1, with “ENPP5” for “ENPP4”, “pNP-PP,” for “p-nitrophenyl phenylphosphonate (pNP-PP, manufactured by Sigma Inc.),”, “p-nitrophenol” for “P-nitrophenol”
as §1, with “ENPP6” for “ENPP4”, “pNP-PP or bis-(p-nitrophenyl)phosphate (bis-pNPP),” for “p-nitrophenyl phenylphosphonate (pNP-PP, manufactured by Sigma Inc.),”, “p-nitrophenol” for “P-nitrophenol”

[4] = Bivalent cation requirement of soluble type ENPP proteins (PDE/PME activity); conditions: MgCl2 and CaCl2 1 mM vs no additive vs EDTA 1 mM, pNP-PP, FIG. 9
Procedure: (§2) 0.2 μg of the purified soluble type ENPP4 protein was mixed in 90 μL of assay buffer (20 mM HEPES, 140 mM NaCl, 5 mM KCl, 10 mM Glucose, pH 9.6), 10 μL of 10 mM pNP-PP, and (1) 1 mM final concentration of MgCl2 and CaCl2, (2) no additive, or (3) 1 mM final concentration of EDTA, and then was kept at 37° C. for 90 min and then, absorption of light of 405 nm was measured and thereby, the increase or decrease of the PDE/PME activity by removing bivalent cations was examined.
as §2, with “ENPP5” for “ENPP4”, “examined. […] It has been thought that a certain cation except for calcium and magnesium ions is bonded to the purified soluble type ENPP5 protein because the activity decreases in the EDTA-adding sample and increases in the no-additive sample. […]” for “examined.”

For `C[N+](C)(C)CCOP(=O)([O-])OC[C@H](O)CO` [Glycerophosphorilcholine], the “inhibitory activity of pNP-PP degradation” value ([1]; pH 9.6, 37° C., 2 hours, 1 mM printed for ADP) was ≥ 80%.

With Lysophosphatidylcholine the “concentration dependence of inhibitory activity of pNP-TMP degradation by ENPP6” value ([1]; FIG. 14) was “inhibitory activity of pNP-TMP degradation depending on concentration of LPC was detected”.

B1: soluble type ENPP4 protein: extracellular region of human ENPP4 with FLAG tag and 6×His tag at the C terminal, expressed in HEK293T cells, purified (protein, UniProt Q9Y6X5 16-407, looked up)
extracellular domain: FRSDSSSSLPPKLLLVSFDGFRADYLKNYEFPHLQNFIKEGVLVEHVKNVFITKTFPNHYSIVTGLYEESHGIVANSMYDAVTKKHFSDSNDKDPFWWNEAVPIWVTNQLQENRSSAAAMWPGTDVPIHDTISSYFMNYNSSVSFEERLNNITMWLNNSNPPVTFATLYWEEPDASGHKYGPEDKENMSRVLKKIDDLIGDLVQRLKMLGLWENLNVIITSDHGMTQCSQDRLINLDSCIDHSYYTLIDLSPVAAILPKINRTEVYNKLKNCSPHMNVYLKEDIPNRFYYQHNDRIQPIILVADEGWTIVLNESSQKLGDHGYDNSLPSMHPFLAAHGPAFHKGYKHSTINIVDIYPMMCHILGLKPHPNNGTFGHTKCLLVDQWCINLPEA
modifications: extracellular domain C-terminal FLAG and 6xHis tags
notes: extracellular region of human ENPP4 with FLAG tag and 6×His tag at the C terminal, expressed in HEK293T cells, purified
With B1 the NPP/PDE activity [2] was “NPP/PDE activity was detected”, the PDE/PME activity [3] was “has the PDE/PME activity” and the bivalent cation requirement [4] was “does not require bivalent cations”.
